Non-standard residues stand in square brackets, D forms with d. No end group written: not given here. Aib = CC(C)(N)C(=O)O

In the assay the target is GLP-1 receptor. The assay is described as follows: cell-based or functional assay.

B1: EU-A391 (peptide)
peptide: H[Aib]QGT[Me‑Phe]TSDYSKYLD[Aib]K-NH2
modifications: not fully specified (residue 17); also: 1-dodecyl beta-D-glucuronyl surfactant on a linker residue
In the case of B1, the “EC50, cAMP generated in cells (GLP-1 cellular assay)” value worked out at 420 nM.
